For one test, the target named is T1, mouse CB-1 (mouse, UniProt P47746 1-473).
T1 construct: whole, on cells; also called moCB1; moCB1-CHO cells
The experiment in a line: flow cytometry on CHO-Mouse CB1 cells, 3-fold antibody titration from 200 nM. The method, then: (§1) Antibody binding was tested in a fluorescence activated cell sorting (FACS)-based assay for the ability of the mouse anti-CB1 antibodies to bind parental CHO cells, human CB-1 overexpressing CHO cells and mouse CB-1 overexpressing CHO cells to obtain binding curves and EC50 values. The three cell lines were harvested, washed and dispensed at 1×10⁵ cells per well of a v-bottomed 96-well polycarbonate FACS plates (Corning, Corning, N.Y., Cat. No. 3357) in 50 μl of FACS buffer (1×PBS/2 mM EDTA and 1% FBS (ThermoFisher Scientific, Anaheim, Calif.; Cat. No. 10438-026). Serial dilutions of the antibodies were prepared at 2× concentrations starting at 200 nM and serially diluted 3-fold. The titrated antibodies were added to the plates containing the three different cell lines (parental, human and mouse CB-1 CHO cells) and incubated at 4° C. for 1 hour. The plates were washed 3× with FACS buffer. […] None of the eight functional antibodies tested were mouse cross reactive (FIG. 3).

The target in test [1] is T2, human cannabinoid receptor type 1 (CB1) (human, UniProt P21554 1-472). The experiment in a line: cell-based or functional assay.
T2 sequence (P21554 whole entry): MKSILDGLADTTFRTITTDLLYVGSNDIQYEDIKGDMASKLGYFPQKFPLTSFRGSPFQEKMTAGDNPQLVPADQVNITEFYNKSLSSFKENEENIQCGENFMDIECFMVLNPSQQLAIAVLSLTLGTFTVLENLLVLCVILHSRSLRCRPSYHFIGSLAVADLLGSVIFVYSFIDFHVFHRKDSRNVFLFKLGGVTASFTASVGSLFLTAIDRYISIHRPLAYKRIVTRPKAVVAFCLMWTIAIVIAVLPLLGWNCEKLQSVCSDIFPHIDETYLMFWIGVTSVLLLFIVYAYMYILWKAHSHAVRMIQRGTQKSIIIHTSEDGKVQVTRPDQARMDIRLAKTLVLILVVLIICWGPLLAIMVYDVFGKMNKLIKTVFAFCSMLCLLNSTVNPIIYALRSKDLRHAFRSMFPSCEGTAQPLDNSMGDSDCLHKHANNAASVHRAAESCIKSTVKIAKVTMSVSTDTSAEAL
For test [2], the target named is T2, human cannabinoid receptor type 1 (CB1). The test is described as follows: FACS, titration on CB1 over-expressing CHO cells. On the procedure: as §1
Background: Flow cytometry measures light scatter and fluorescence of single cells or particles in a stream.

The target is the same in test [3]. The experiment in a line: flow cytometry, single point at 30 ug/mL antibody on CHO-huCB-1 cells.
Test [4] shares this target. The test is described as follows: FACS on CHO-huCB-1 cells, single concentration 30 ug/mL.

T1 sequence (P47746 whole entry): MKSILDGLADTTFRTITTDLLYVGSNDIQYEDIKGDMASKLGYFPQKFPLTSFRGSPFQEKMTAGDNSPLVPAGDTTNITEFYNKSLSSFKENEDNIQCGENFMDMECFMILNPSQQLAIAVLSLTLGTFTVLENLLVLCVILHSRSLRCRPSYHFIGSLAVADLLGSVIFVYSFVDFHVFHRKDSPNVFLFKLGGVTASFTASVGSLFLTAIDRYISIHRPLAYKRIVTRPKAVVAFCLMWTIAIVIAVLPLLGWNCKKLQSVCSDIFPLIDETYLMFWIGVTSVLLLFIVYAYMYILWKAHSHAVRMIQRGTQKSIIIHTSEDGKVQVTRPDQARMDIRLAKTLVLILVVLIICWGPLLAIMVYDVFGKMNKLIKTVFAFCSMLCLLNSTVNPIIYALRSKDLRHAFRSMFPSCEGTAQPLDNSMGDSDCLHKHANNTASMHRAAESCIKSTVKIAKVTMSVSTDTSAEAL

B1: M7 mouse anti-huCB-1 antibody (antibody, V domains shown)
VH: EVQLQQPGAELVRPGASVKLSCKASSYTFTRYWMNWVKQRPEEGLEWIGMIDPYDSETHYNQKFKDKAILTVDKSSSTAYMQLSTLTSEDSAVYFCARSQPRYYAMDYWGQGTSVTVSS
VL: DIQMSQSPSSLSASLGERVSLTCRASQEISGFLSWLQLRPDGTIKRLIYAASSLDSGVPKRFRGSWSGSDYSLTISSLESEDFADYYCLQYSSYPYTFGGGTKLEIK
Broadly, the EC50 is the concentration needed to bring the measured effect to its halfway point. Higher therefore signals lower potency in that assay. B1: the binding result with mouse CB-1 is recorded as “no binding (tested: 200 nM)”. In test [1], the “Mean P-ERK (% inhibition)” value was found to be 95 % inhibition, the “Mean cAMP (% Amgen)” value stood at 61 % Amgen, the “P-ERK IC50 (nM) Data Set 1” value stood at 117 nM and the “P-ERK IC50 (nM) Data Set 2” value came out at 170 nM. For the same molecule, in test [1], the “cAMP EC50 (nM) Data Set 1” value is 78 nM, the “cAMP EC50 (nM) Data Set 2” value was 120 nM and the “cAMP EC50 (nM) Data Set 3” value stood at 120 nM. In test [2], this molecule showed a concentration giving a half-maximal response (EC50) of 13 nM.

B2: M7-H3 humanized anti-CB1 antibody (antibody, human IgG1, kappa, L234A L235A, V domains shown)
VH: QVQLVQSGAEVKKPGASVKVSCKASSYTFTRYWMNWVKQAPGQGLEWIGMIDPYDSETHYNQKFQGRATLTVDTSTSTVYMELSSLRSEDTAVYFCARSQPRYYAMDYWGQGTTVTVSS
VL: DIQMTQSPSSLSASLGDRVTLTCRASQEISGFLSWLQLKPGKTIKRLIYAASSLDSGVPSRFSGSWSGTDYTLTISSLQPEDFADYYCLQYSSYPYTFGGGTKLEIKR
Turning to B2, the binding result in test [3] is listed as “binds”.

B3: M7-H5 humanized anti-CB1 antibody (antibody, human IgG1, kappa, L234A L235A, V domains shown)
VH: QVQLVQSGAEVVKPGASVKLSCKASSYTFTRYWMNWVKQAPGQGLEWIGMIDPYDSETHYNQKFKDKAILTVDKSTSTAYMELSTLRSEDTAVYFCARSQPRYYAMDYWGQGTSVTVSS
VL: DIQMTQSPSSLSASLGDRVTLTCRASQEISGFLSWLQLRPDGTIKRLIYAASSLDSGVPSRFRGSWSGTDYTLTISSLQSEDFADYYCLQYSSYPYTFGGGTKLEIKR
On to B3, for which the binding result in test [4] is reported as “binds”.

B4: M7-H6 humanized anti-CB1 antibody (antibody, human IgG1, kappa, V domains shown)
VH: QVQLVQSGAEVKKPGASVKVSCKASSYTFTRYWMNWVRQAPGQGLEWMGMIDPYDSETHYNQKFKDRVTMTRDTSTSTVYMELSSLRSEDTAVYYCARSQPRYYAMDYWGQGTSVTVSS
VL: DIQMTQSPSSLSASVGDRVTITCRASQEISGFLAWFQQKPGKAPKSLIYAASSLQSGVPSRFSGSGSGTDFTLTISSLQPEDFATYYCQQYSSYPYTFGGGTKLEIKR
Turning to B4, the binding result in test [4] is “binds”.

B5: M7-H2 humanized anti-CB1 antibody (antibody, human IgG1, kappa, L234A L235A)
heavy: not shown
light: DIQMTQSPSSLSASVGDRVTLTCRASQEISGFLSWLQLKPGKAIKRLIYAASSLDSGVPSRFSGSWSGTDYTLTISSLQPEDFADYYCLQYSSYPYTFGGGTKVEIKRTVAAPSVFIFPPSDEQLKSGTASVVCLLNNFYPREAKVQWKVDNALQSGNSQESVTEQDSKDSTYSLSSTLTLSKADYEKHKVYACEVTHQGLSSPVTKSFNRGEC
B5: in test [3], the binding result was “binds”.

B6: M8 mouse anti-huCB-1 antibody (antibody, V domains shown)
VH: QVQLQQPGAELVKPGASVKLSCKASGYTFTDYWMHWVKQRPGHGLEWIGEIYPSSGRANYNGNFKRKATLTVDKSSSTAYMQLSSLTSEDSAVYYCARSRGNYLPYWGHGTPVTVSA
VL: QIVLTQSPAIMSASLGERVTMTCTAGSTVSSSYLHWYQQRPGSSPKLWIYGTSNLASGVPARFSGSGSGTSYSLTISSMEAEDAATYYCHQYHRSPPTFGGGTKLEIK
Regarding B6, the binding result in the test with mouse CB-1 is “no binding (tested: 200 nM)”. In test [1], the “Mean P-ERK (% inhibition)” value is 64 % inhibition, the “Mean cAMP (% Amgen)” value worked out at 29 % Amgen, the “P-ERK IC50 (nM) Data Set 1” value amounted to 36 nM and the “P-ERK IC50 (nM) Data Set 2” value worked out at 47 nM. In test [1], the “cAMP EC50 (nM) Data Set 1” value turned out to be 96 nM, the “cAMP EC50 (nM) Data Set 2” value was determined as 190 nM and the “cAMP EC50 (nM) Data Set 3” value came out at 370 nM. This molecule also displayed an EC50 in test [2] of 10.7 nM.

B7: M5-H1 humanized anti-CB1 antibody (antibody, human IgG1, kappa, L234A L235A, V domains shown)
VH: QVQLVQSGAEVVKPGASVKISCKASGYEFSYYWMNWVKQAPGQGHEWIGQIYPGDGDTNYNGKFKGKATLTADKSTSTAYMELSSLRSEDTAVYFCARGREAAWFAYWGQGTLVTVSS
VL: DIQLTQSPSSLSVSVGDRATITCRASQSVSSFRYSYLHWYQQKPGKAPKLLIKYASNLESGVPSRFSGSGSGTDFTLTISSVQPEDFATYFCQHSWEIPFTFGQGTKLEIKR
As for B7, the binding result in test [3] is “binds”.

B8: M5-H2 humanized anti-CB1 antibody (antibody, human IgG1, kappa, L234A L235A, V domains shown)
VH: QVQLVQSGAEVKKPGASVKVSCKASGYEFSYYWMNWVRQAPGQGHEWIGQIYPGDGDTNYNQKFQGRVTLTADTSTSTAYMELSSLRSEDTAVYFCARGREAAWFAYWGQGTLVTVSS
VL: DIQLTQSPSSLSVSVGDRATITCRASQSVSSFRYSYLHWYQQKPGKAPKLLIKYASNLESGVPSRFSGSGSGTDFTLTISSVQPEDFATYFCQHSWEIPFTFGQGTKLEIKR
For B8, the binding result in test [3] is “binds”.

B9: M5 mouse anti-huCB-1 antibody (antibody, V domains shown)
VH: QVHLQQSGAELVRPGSSVKISCKASGYEFSYYWMNWVKQRPGQGHEWIGQIYPGDGDTNYNGKFKGKATLTADKSSSTAYMQLSSLTSEDSAVYFCARGREAAWFAYWGQGTLVTVSA
VL: DIVLAQSPASLAVSLGQRATISCRASQSVSSFRYSYLHWYQQKPGQPPRLLIKYASNLESGVPARFSGSGSGTDFTLNIHPVEEEDTATYFCQHSWEIPFTFGSGTKLEIKR
notes: The humanized M5-H1 and M5-H2 carry the CDRs of the un-numbered VL, so that one may be the functional light chain
Regarding B9, the binding result with mouse CB-1 was “no binding (tested: 200 nM)”. In test [1], the “Mean P-ERK (% inhibition)” value came to 101 % inhibition, the “Mean cAMP (% Amgen)” value was found to be 61 % Amgen, the “P-ERK IC50 (nM) Data Set 1” value was 191 nM and the “P-ERK IC50 (nM) Data Set 2” value was 50 nM. Moreover, in test [1], the “cAMP EC50 (nM) Data Set 1” value was found to be 91 nM, the “cAMP EC50 (nM) Data Set 2” value amounted to 170 nM and the “cAMP EC50 (nM) Data Set 3” value turned out to be 170 nM. Besides, in test [2], the EC50 was found to be 20.2 nM.

The record behind these values is patent US20220396620A1 (Takeda / Millennium, published 2022).
